Experimental data published in article PMC4024195.

Key:
glucokinase-YN155 [1] = molecular target: glucokinase-YN155 (UniProt P17712); experiment: BiFC assay; details: COS1 cells, 25 mM glucose, without dibutyryl cAMP; parent: est. 36; read off a plot
glucokinase-YN155 [2] = molecular target: glucokinase-YN155 (UniProt P17712); experiment: BiFC assay; details: COS1 cells, 25 mM glucose, read off a plot

Chain of UniProt P17712 (P17712 whole entry): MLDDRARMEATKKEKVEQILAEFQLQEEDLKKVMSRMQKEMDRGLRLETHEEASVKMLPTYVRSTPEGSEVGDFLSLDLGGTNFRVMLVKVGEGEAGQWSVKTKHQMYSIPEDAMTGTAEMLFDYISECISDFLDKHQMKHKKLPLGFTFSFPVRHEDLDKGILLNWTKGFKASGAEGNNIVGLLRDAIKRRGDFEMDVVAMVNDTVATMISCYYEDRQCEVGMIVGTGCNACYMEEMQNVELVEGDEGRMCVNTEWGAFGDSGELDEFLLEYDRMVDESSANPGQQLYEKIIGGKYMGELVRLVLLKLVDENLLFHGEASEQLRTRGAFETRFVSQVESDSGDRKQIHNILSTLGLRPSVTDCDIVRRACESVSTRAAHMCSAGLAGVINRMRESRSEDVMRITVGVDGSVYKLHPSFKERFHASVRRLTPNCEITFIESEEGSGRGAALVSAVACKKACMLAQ

Substance | response (% transfected cells) (glucokinase-YN155 [1]) | response (% transfected cells) (glucokinase-YN155 [2]; 50 μM dibutyryl cAMP for 1 h, parent: est. 28) | response (% transfected cells) (glucokinase-YN155 [2]; without dibutyryl cAMP, parent: est. 36)
wild-type PFK2/FBPase2-YC155 (from UniProt P07953) S32A | 39 | 33 | 39
wild-type PFK2/FBPase2-YC155 (from UniProt P07953) S32D | 39 | – | –
